In test [1] the target is T1, pan-hSYT2 (antigenic peptide for panning, Human SYT2 position 1-62) (human, lysine residue bound to biotin (position marked only in a picture of the sequence)).
T1 construct: Synthetic biotinylated peptide, immobilised on streptavidin biosensors in the Octet measurements; also called N-terminal domain of human Synaptotagmin 2
T1 peptide: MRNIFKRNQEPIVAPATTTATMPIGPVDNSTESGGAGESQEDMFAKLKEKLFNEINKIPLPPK
Kind of test: BLI (Octet RED96e), biotinylated pan-hSYT2 on streptavidin biosensor, antigen loaded at 0.05 ug/mL. In general terms: In BLI a coated tip is dipped into the sample, and binding shifts an interference pattern.

For test [2], the target named is T1, pan-hSYT2 (antigenic peptide for …). The test is described as follows: BLI (Octet RED96e), same manner as Example 2, antigen loaded at 0.2 ug/mL.

Changes are numbered by the printed parent chain.

B1: first monoclonal antibody according to the present invention (antibody, human IgG1, V domains shown)
VH: EVQLQESGAELVRPGASVKLSCKASGYTFTDYEMHWVKQTPVHGLEWIGAIDPETGGTAYNQKFKGKATLTADKSSSTAYMELRSLTSEDSAVYYCTRGNDGYNEDYWGQGTTLTVSS
VL: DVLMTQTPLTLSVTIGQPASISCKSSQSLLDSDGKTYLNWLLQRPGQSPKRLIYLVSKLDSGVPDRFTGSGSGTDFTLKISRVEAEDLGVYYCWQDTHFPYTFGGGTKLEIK
notes: Mouse VH and VL from a phage display scFv clone; also called first antibody; first anti-SYT2 antibody
Consider B1, for which, in test [1], the dissociation constant Kd (usually a measure of binding affinity in units of concentration) turned out to be 0.0267 nM; the koff – broadly, the first-order rate constant of dissociation – amounted to 7.01e-06 s⁻¹; the on-rate constant (kon) (commonly a measure of how fast the partners come together) worked out at 263000 M⁻¹ s⁻¹.

B2: second monoclonal antibody according to the present invention (antibody, human IgG1, V domains shown)
VH: B1 VH with E1Q, E6Q, T113S
VL: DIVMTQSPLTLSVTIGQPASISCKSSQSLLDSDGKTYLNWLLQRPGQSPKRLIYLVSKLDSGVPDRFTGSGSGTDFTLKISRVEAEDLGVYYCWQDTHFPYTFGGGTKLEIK
notes: also called second antibody; second anti-SYT2 antibody
In turn, B2 gave a koff in test [2] of 1.35e-05 s⁻¹.

The values above are taken from EP4722241A1 (Jiksak Bioengineering, Inc., dated 2024).
